Measured values: US20240398942A1 (CHIA TAI TIANQING PHARMACEUTICAL GROUP, published 2024)
Where two headings read alike, the source gives them in different places.

Columns and labels:
human CD40-Fc protein = molecular target: T1, human CD40-Fc protein (human, biotinylated (sites not given) in the capture ELISA and the benchmark blocking ELISA; not biotinylated in the ligand blocking ELISA); test: competitive ELISA (self-competition): BM2 (selicrelumab) coated as competitor, soluble BM2 titrated and pre-mixed with biotinylated human CD40-Fc 0.23 nM, streptavidin-HRP, OD(450-630)
T1 construct: also called biotinylated human CD40-Fc
Procedure: The ability of the anti-CD40 antibody of the present application to block the binding of the benchmark to human CD40 was determined by competitive ELISA. Briefly, BM2 antibody was immobilized on a 96-well micro plates at 1 μg/mL in PBS, 100 µL/well, and incubated overnight at 4° C. The next day, the plate was washed once with a washing buffer before a blocking buffer (PBST containing 5% w/v of skim milk) was added. The plate was then incubated at 37° C. for 2 h for blocking. During the blocking of the 96-well plate, the anti-CD40 antibody of the present application or the benchmark was serially 5-fold diluted from 66.7 nM with a biotinylated human CD40-Fc protein (amino acid residues 21-193 of SEQ ID NO: 30 linked to the N terminus of amino acid residues 99-330 of SEQ ID NO: 28, dissolved in PBST containing 2.5% w/v of skim milk at a concentration of 0.23 nM) and then incubated at room temperature for 40 min. After the plate was washed 4 times, the antibody/biotinylated human CD40-Fc mixture was added at 100 μL/well to the plate coated with BM2. The plate was incubated at 37° C. for 40 min and again washed 4 times with the washing buffer. […] The absorbance was read on a microplate reader using the dual wavelength mode (TMB detection wavelength: 450 nm, reference wavelength: 630 nm). […] Data were analyzed using Graphpad Prism software, and IC₅₀ values were obtained.

[1] = molecular target: T2, cynomolgus monkey CD40-his protein (Acro biosystems, Cat. No. CD0-C52H6) (cynomolgus monkey, UniProt G7PG38 21-193); test: SPR (Biacore T200), antibody captured, CD40-his as analyte, 1:1 fit
T2 construct: Bought protein; not shown: His tag
Excerpt: (§1) Briefly, a goat anti-human IgG (GE Healthcare, Cat. No. BR100839, human antibody capture kit) was covalently linked to a CM5 chip (GE Healthcare, Cat. No. BR100530, carboxymethylated dextran-coated chip) via the primary amine group using a standard amine coupling kit supplied by Biacore (GE Healthcare, Pittsburgh, PA, USA). Unreacted portions on the biosensor surface were blocked with ethanolamine. Then, the anti-CD40 antibody of the present application and two benchmark antibodies (BM1 (dacetuzumab, Genentech Inc., also referred to CD40-BM1, prepared in-house; the heavy and light chain amino acid sequences are set forth in SEQ ID NOs: 40 and 41, respectively) and BM2 (selicrelumab, Abgenix Inc., also referred to CD40-BM2, prepared in-house; the heavy and light chain amino acid sequences are set forth in SEQ ID NOS: 42 and 43, respectively)) at a concentration of 66.67 nM were directed through the chip at a flow rate of 10 μL/min. Then, serially diluted recombinant human CD40-his (Acro biosystems, Cat. No. CD0-H5228, serially 2-fold diluted from 80 nM in HBS-EP⁺ buffer (supplied by Biacore)) or cynomolgus monkey CD40-his protein (Acro biosystems, Cat. No. CD0-C52H6, serially 2-fold diluted from 80 nM in HBS-EP⁺ buffer (supplied by Biacore)) was directed through the chip at a flow rate of 30 μL/min. The antigen-antibody binding kinetics was tracked for 2 min and the dissociation kinetics was tracked for 10 min. The association and dissociation curves were fitted to a 1:1 Langmuir binding model using BIAcore evaluation software. KD, Kₐ, and Kd values were determined.

[2] = molecular target: T3, recombinant human CD40-his (Acro biosystems, Cat. No. CD0-H5228) (human, UniProt P25942 21-193); test: as above
T3 construct: Bought protein; also called human CD40-his protein; not shown: His tag
Excerpt: as §1

[3] = molecular target: T2, cynomolgus monkey CD40-his protein …; test: as above; remark: listed apart in the source
[4] = molecular target: T3, recombinant human CD40-his (Acro …); test: as above; remark: listed apart in the source

| IC50 (human CD40-Fc protein) [nM] | Kd [1] [nM] | koff [1] [s⁻¹] | kon [1] [M⁻¹ s⁻¹] | Kd [2] [nM] | koff [2] [s⁻¹] | kon [2] [M⁻¹ s⁻¹] | Kd [3] [nM] | koff [3] [s⁻¹] | kon [3] [M⁻¹ s⁻¹] | Kd [4] [nM] | koff [4] [s⁻¹] | kon [4] [M⁻¹ s⁻¹] | Binder |
| --- | --- | --- | --- | --- | --- | --- | --- | --- | --- | --- | --- | --- | --- |
| 0.529 | – | – | – | – | – | – | – | – | – | – | – | – | BM2 (selicrelumab) (antibody, human IgG2, kappa, V domains shown, Benchmark antibody, prepared in-house; also called CD40-BM2; benchmark) VH: not shown VL: DIQMTQSPSSVSASVGDRVTITCRASQGIYSWLAWYQQKPGKAPNLLIYTASTLQSGVPSRFSGSGSGTDFTLTISSLQPEDFATYYCQQANIFPLTFGGGTKVEIKR |
| – | 0.852 | 0.00118 | 1.39e+06 | 0.684 | 0.00123 | 1.79e+06 | 0.377 | 0.000863 | 2.29e+06 | 0.428 | 0.000897 | 2.1e+06 | mouse anti-CD40 monoclonal antibody C1H1 (antibody, V domains shown, Parent mouse antibody from a hybridoma; the mouse constant regions are not; also called Mouse C1H1) VH: EVKLVESGGGLVKPGASLKLSCAASGFTFSNYGISWVRQTSDKRLEWVASISSGGDNTYYPDNVKGRFTISRENAKNTLYLQMSSLKSEDTALYYCARAGEKAMDYWGQGTSVTVSS VL: DIVLTQSPVTLSVTPGDSVSLSCRASQTINNNLHWYQQKSHESPRLLIKYASQSISGIPSRFSGSGSGTDFTLSINSVETEDFGIYFCQQFSSWPLTFGAGTKLELK |
